In patent US20200262921A1 (SHANGHAI KANDA BIOTECHNOLOGY, published 2020):
Like-named read-outs stand apart in the source and are kept apart here.

Key:
[1] = molecular target: T1, Recombinant human CTLA-4-Fc fusion protein (R&D Systems, Catalog number 352-CTY/CF) (human, UniProt P16410 37-162); assay: ELISA on coated CTLA-4 (rhCTLA-4-Fc), scFv phage at one amount, anti-M13-HRP, absorbance at 450 nm
T1 construct: range 37-162; Bought reagent; also called rhCTLA-4; rhCTLA-4-Fc; not shown: immunoglobulin gamma I Fc region
T1 sequence (looked up): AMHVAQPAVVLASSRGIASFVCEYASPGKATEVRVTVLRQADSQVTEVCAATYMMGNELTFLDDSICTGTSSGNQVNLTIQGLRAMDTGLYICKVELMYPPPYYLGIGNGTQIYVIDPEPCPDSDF

[2] = molecular target: T1, Recombinant human CTLA-4-Fc fusion …; assay: ELISA, plates coated with purified rhCTLA-4, 4-parameter fit; C2 mAb
[3] = molecular target: T1, Recombinant human CTLA-4-Fc fusion …; assay: ELISA on coated rhCTLA-4, goat anti-human IgG F(ab') alkaline phosphatase, OD 415 nm
[4] = molecular target: T1, Recombinant human CTLA-4-Fc fusion …; assay: BLI (Fortebio), mAb captured on sensors, rhCTLA-4-Fc in solution 100 nM to 1.6 nM
Procedure: Kinetic analysis of binding to rhCTLA-4. […] The sensors were then blocked in the blocking solution for 5 min. Recombinant human CTLA-4-Fc protein was two-fold serial diluted in the blocking solution to 7 different concentrations, range from 100 nM to 1.6 nM. Kinetic association assays were started by putting antibody-capturing sensors into above serial diluted CTLA-4-Fc solutions. One sensor was immersed into the blocking solution as negative control. After 5 min binding, all sensors were moved to the blocking solution to start kinetic dissociation assays. Assays were stopped after 7 min.

[5] = molecular target: T1, Recombinant human CTLA-4-Fc fusion …; assay: competition ELISA on coated rhCTLA-4-Fc, 10 ng/ml biotin-B7-1-Fc mixed with the antibody, streptavidin alkaline phosphatase, absorption at 405 nm
Procedure: Human recombinant CTLA-4-Fc (2 ug/ml) in 50 ul of 20 mM NaHCO3, pH 9.7 was coated on 96-well plates and incubated at 4° C. overnight. After rhCTLA-4-Fc was removed, the plates were blocked with 100 ul of 3% BSA in wash/dilution buffer (TBS buffer, pH 7.0 containing 0.05% Tween-20) at 37° C. for 2 hours. […] The mixtures (50 ul/well) were added to rhCTLA-4-Fc coated plates and incubated at 37° C. for 2 hours. The solution was decanted, and the plates were washed 3 times with wash buffer. Alkaline phosphatase conjugated streptavidin (Herochem Inc., China) was diluted 2500-fold in binding buffer and add 50 ul/well to plates. After the plates were incubated at 37° C. for 2 hours, the AP-streptavidin solution was decanted, and the plates were washed 6 times with wash buffer. Alkaline phosphatase substrate pNpp solution was added 50 ul/well to plates. The plates were incubated at 37° C. for 20 min and read at 405 nm using a Bio-Rad microplate reader. […] All samples were tested in duplicate.

[6] = molecular target: T1, Recombinant human CTLA-4-Fc fusion …; assay: ELISA on coated rhCTLA-4, goat anti-human IgG F(ab') alkaline phosphatase, OD 415 nm; remark: listed apart in the source
[7] = molecular target: T1, Recombinant human CTLA-4-Fc fusion …; assay: ELISA, plates coated with purified rhCTLA-4, 4-parameter fit; C5 mAb

B1: C15 (scFv, V domains shown, not shown: large carriers; small tags and cut ends)
VH: QVQLVQSGAEVKKPGSSVKVSCKASGGTFSSYAISWVRQAPGQGLEWMGGIIPIFGTANYAQKFQGRVTITADESTSTAYMELSSLRSEDTAVYYCARDTAMALFYYYYGMDVWGQGTLVTVSS
VL: QSALTQPASVSGSPGQSTTISCTGTSSDVGGYNYVSWYQQHPGKAPKLMIYEVSNRPSGVSNRFSGSKSGNTASLTISGLQAEDEADYYCSSYRSSGTPYVFGTGTKLTVL
notes: scFv phage form of clone C15; also called clone C15 scFv phage; C15 scFv; copies: 1 + 1
binding result [1]: binds

B2: C2 mAb (anti-human CTLA-4 full length human monoclonal antibody) (antibody, V domains shown)
VH: QVQLVQSGGGVVQPGRSLRLSCAASGFTFSSYGMHWVRQAPGKGLEWVAVIWYDGSRQYYADSVKGRFTISRDDSKNTMYLQMNSLRAEDTAVYYCARGGFWGAFDIWGQGTMVTVSS
VL: DVVMTQSPGTLSLSPGEGATLSCRASQHVISSYLAWYQQKPGQAPRLLVYGASSRDTGVSDRFTGSGSGTDFTLTISRLEPEDSAVYFCQQYGTSPWTFGQGTKLEIKR
notes: also called clone C2; KD6001-2
EC50 [2]: 0.025 µg/mL
EC50 (read off the curve) [3]: ~0.03 µg/mL
Kd [4]: 0.86 nM
koff [4]: 0.00048 s⁻¹
kon [4]: 550000 M⁻¹ s⁻¹
IC50 (read off the curve) [5]: ~0.03 µg/mL

B3: C5 mAb (anti-human CTLA-4 full length human monoclonal antibody) (antibody, V domains shown)
VH: QVQLVQSGAEVKKPGASVKVSCKASGFSFPNYYMHWVRQAPGQGLEWMGIISPTGGSRTYAQKFQGRVTITRDTSTSTVYMELSSLRSEDTAVYYCAREMYNWNGGWDYGMDVWGQGTLVTVSS
VL: QSALTQSASVSGFPGQSITVSCVGTNSDVEAYDLVSWYRQHPDKSPNLLIYDNYKRPSGVSDRFSAFKSGNTASLTISGLQAEDEAYYYCCSYAGFSTWIFGAGTQLTVLG
notes: also called clone C5; KD6001-5
EC50 (read off the curve) [6]: ~0.08 µg/mL
EC50 [7]: 0.066 µg/mL
Kd [4]: 2.2 nM
koff [4]: 0.00061 s⁻¹
kon [4]: 280000 M⁻¹ s⁻¹
